Data: article PMC6306009, “Combined use of cutinase and high-resolution mass-spectrometry to query the molecular architecture of cutin” (Plant Methods, 2018)

Key:
[1] = system: CCCC(=O)Oc1ccc([N+](=O)[O-])cc1; assay: purified protein; conditions: 20 mM Tris-HCl pH 8, 10 mM NaCl, 10% acetonitrile (standard assay), temperature not given
F. solani cutinase = target: T1, F. solani cutinase (Fusarium vanettenii, UniProt P00590); assay: p-nitrophenol release, absorbance at […] nm; format: biochemical; conditions: 20 mM Tris-HCl pH 8, 10 mM NaCl, 10% acetonitrile (standard assay); temperature not given
T1 construct: gene CUT1; codon-optimised ORF, His-tagged, pET30f, E. coli BL21(DE3), sarkosyl extraction, Ni-NTA purified; 24-30 kDa on SDS-PAGE
T1 sequence (P00590 32-230): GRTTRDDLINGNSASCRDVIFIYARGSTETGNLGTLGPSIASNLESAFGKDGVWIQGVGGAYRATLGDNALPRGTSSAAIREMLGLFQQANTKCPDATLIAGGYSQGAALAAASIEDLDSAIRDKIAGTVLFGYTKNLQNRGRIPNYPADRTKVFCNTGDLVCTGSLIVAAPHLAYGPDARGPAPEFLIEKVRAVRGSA

Row | Compound | Km [1] | kcat [1] | Km (F. solani cutinase)
1 | A. brassicicola cutinase (Alternaria brassicicola) | 870 ± 50 µM | 12 ± 0.80 s⁻¹ | 
2 | CCCC(=O)Oc1ccc([N+](=O)[O-])cc1 [p-nitrophenyl butyrate] |  |  | 1260 ± 60 µM
